Assay results from patent publication US20250257357.

What was measured:
[1] = biological target: C-terminal SNAP-tagged H3.3 G34R (UniProt P84243)
[2] = biological target: C-terminal SNAP-tagged H3.3 K27M (UniProt P84243)

Substance: Polynucleotide Kinase 3′-Phosphatase (PNKP)
- NHEJ activity by random plasmid integration assay upon knockdown of PNKP [1]: it does reduce NHEJ in H3.3K27M and G34R cells
- NHEJ activity by random plasmid integration assay upon knockdown of PNKP [2]: it does reduce NHEJ in H3.3K27M and G34R cells
